Our source for the FRET efficiency values is article PMC8406365 (Acta Biochimica et Biophysica Sinica, 2021).

In this assay the target is SENP3 (endogenous, LO2 hepatocytes) (human (endogenous in LO2), UniProt Q9H4L4 1-574). Put plainly: FRET or BRET. For orientation: BRET reads energy transfer from a luciferase to a nearby fluorophore.
SENP3 (endogenous, LO2 hepatocytes), sequence (Q9H4L4 whole entry): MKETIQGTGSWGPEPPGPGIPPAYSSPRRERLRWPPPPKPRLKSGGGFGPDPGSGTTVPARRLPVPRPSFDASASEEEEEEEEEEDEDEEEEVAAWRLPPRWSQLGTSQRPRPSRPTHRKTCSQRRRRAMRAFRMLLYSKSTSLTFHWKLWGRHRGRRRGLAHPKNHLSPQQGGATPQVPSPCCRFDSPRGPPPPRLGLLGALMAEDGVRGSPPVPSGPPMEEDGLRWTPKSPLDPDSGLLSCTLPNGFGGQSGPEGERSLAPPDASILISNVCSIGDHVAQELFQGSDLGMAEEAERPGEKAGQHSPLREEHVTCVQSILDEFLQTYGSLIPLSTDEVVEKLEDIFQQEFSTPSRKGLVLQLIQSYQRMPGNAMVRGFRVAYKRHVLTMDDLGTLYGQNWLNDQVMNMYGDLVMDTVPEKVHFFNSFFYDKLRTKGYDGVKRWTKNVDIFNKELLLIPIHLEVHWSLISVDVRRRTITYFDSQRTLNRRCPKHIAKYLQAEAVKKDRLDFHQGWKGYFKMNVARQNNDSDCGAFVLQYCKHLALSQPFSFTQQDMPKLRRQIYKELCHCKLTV

B1: ATP synthase subunit (ATP5F1A) (natural protein, human (endogenous in LO2), UniProt P25705 44-553, looked up)
chain: QKTGTAEMSSILEERILGADTSVDLEETGRVLSIGDGIARVHGLRNVQAEEMVEFSSGLKGMSLNLEPDNVGVVVFGNDKLIKEGDIVKRTGAIVDVPVGEELLGRVVDALGNAIDGKGPIGSKTRRRVGLKAPGIIPRISVREPMQTGIKAVDSLVPIGRGQRELIIGDRQTGKTSIAIDTIINQKRFNDGSDEKKKLYCIYVAIGQKRSTVAQLVKRLTDADAMKYTIVVSATASDAAPLQYLAPYSGCSMGEYFRDNGKHALIIYDDLSKQAVAYRQMSLLLRRPPGREAYPGDVFYLHSRLLERAAKMNDAFGGGSLTALPVIETQAGDVSAYIPTNVISITDGQIFLETELFYKGIRPAINVGLSVSRVGSAAQTRAMKQVAGTMKLELAQYREVAAFAQFGSDLDAATQQLLSRGVRLTELLKQGQYSPMAIEEQVAVIYAGVRGYLDKLEPSKITKFENAFLSHVVSQHQALLGTIRADGKISEQSDAKLKEIVTNFLAGFEA
On to B1, for which the FRET efficiency is approximately 25%.
